Assay results: patent US8242240B2, “Anti-inflammatory compounds and uses thereof” (Yale University, priority 2000, dated 2012)

Target: T1, IKKα-NEMO interaction (Homo sapiens, UniProt Q9Y6K9)
T1 construct: bacterially expressed version of full length NEMO fused at its NH2-terminus to glutathione S-transferase; made in house; host or cells: bacteria (GST-NEMO); in vitro transcription/translation (IKKα)
Assay: GST pull-down of IKKα by GST-NEMO in the presence of NBD peptide
Format: binding
Settings: peptide 500 and 1000 μM
Experimental: (A) Sequences of the NBD wild type (SEQ ID NO:177) and scrambled control peptides (SEQ ID NO:178). The wild type peptide corresponds to residues 734 to 744 of IKKβ. (B) GST pull-down analysis was performed using GST-NEMO and in vitro transcribed and translated IKKα (upper panel) and IKKβ (middle panel) in the presence or absence of either vehicle (2% DMSO), scrambled or wild type NBD peptide (500 and 1000 μM of each peptide). […] (C) Densitometric analysis of autoradiograph bands obtained following GST pull-down of IKKa and IKKb using GST-NEMO in the presence of a range of concentrations of wild type NBD peptide. […] The data are presented as the pixel density as a percentage of control (no peptide) and represent means±sd (n=11). Analysis was performed using the NIH-Image software.

T1 sequence (Q9Y6K9 whole entry, the tested form may be a part): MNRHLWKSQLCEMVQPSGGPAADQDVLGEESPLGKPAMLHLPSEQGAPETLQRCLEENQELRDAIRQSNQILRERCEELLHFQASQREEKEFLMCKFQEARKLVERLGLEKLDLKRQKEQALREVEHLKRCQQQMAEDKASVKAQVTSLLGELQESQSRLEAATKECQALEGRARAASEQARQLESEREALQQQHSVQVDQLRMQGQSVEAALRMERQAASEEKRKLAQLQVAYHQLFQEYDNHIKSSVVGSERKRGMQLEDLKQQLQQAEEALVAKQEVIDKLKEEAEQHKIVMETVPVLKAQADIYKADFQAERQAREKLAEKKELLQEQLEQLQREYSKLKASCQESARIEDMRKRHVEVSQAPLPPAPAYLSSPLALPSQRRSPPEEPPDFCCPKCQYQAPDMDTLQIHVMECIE

Substance: NBD wild type (SEQ ID NO:177): wild type peptide corresponding to residues 734 to 744 of IKKβ (FTALDWSWLQT; Description of Unknown: Unknown wildtype NBD peptide)
- interaction of IKKα with NEMO (GST pull-down): prevents
